Series [1] concerns the target human uPAR (Homo sapiens, UniProt Q03405). The series is described as follows: Binding of 2G10 Fabs to uPAR measured using Octet instrument. The protocol: Measurement of 2G10-Fab-FA-LAP Affinity for uPAR: Stocks solutions were diluted to the following concentrations in 100 μL PBS: 2G10-Fab-LAP (10 μM), Lp1AΔHis (50 μM), FA (750 μM), ATP (3 mM), Mg(OAc)2 (5 mM). The resulting solution was incubated at 30° C. for 15 h and then quenched with 100 μL. 360 mM EDTA. Kinetic constants this sample, along with 2G10 and 2G10-Fab-LAP, were determined using an Octet RED384 instrument (ForteBio). Four concentrations of each Fab (500 nM, 250 nM, 100 nM and 50 nM) were tested for binding to the biotinylated antigen (human uPAR) immobilized on ForteBio streptavidin SA biosensors. All measurements were performed at room temperature in 384-well microplates and the running buffer was PBS with 0.1% (w/v) bovine serum albumin (BSA) and 0.02% (v/v) Tween 20. Biotinylated human uPAR was loaded for 180 s from a solution of 150 nM, baseline was equilibrated for 60 s, and then the Fabs were associated for 120 s followed by 300 s disassociation. Between each Fab sample, the biosensor surfaces were regenerated three times by exposing them to 10 mM glycine, pH 1.5 for 5 s followed by PBS for 5 s. Data were analyzed using a 1:1 interaction model on the ForteBio data analysis software 8.2.
For orientation: Biolayer interferometry detects binding as a change in optical thickness at a sensor tip.

The target of series [2] is T1, LAP peptide (Ac-GFEIDKVWYDLDA-OH).
T1 chain: GFEIDKVWYDLDA

Series [3] concerns the target T2, scrambled LAP peptide (Ac-EFDDWKYADVGLI).
T2 chain: EFDDWKYADVGLI

The target of series [4] is human urokinase plasminogen activator receptor (uPAR), biotinylated (human) (UniProt Q03405). As to the kind of experiment: BLI (Octet RED384), biotinylated human uPAR on streptavidin biosensors, Fab in solution, 1:1 model.
Chain of human urokinase plasminogen activator receptor (uPAR), biotinylated (human) (Q03405 23-303 limits assumed): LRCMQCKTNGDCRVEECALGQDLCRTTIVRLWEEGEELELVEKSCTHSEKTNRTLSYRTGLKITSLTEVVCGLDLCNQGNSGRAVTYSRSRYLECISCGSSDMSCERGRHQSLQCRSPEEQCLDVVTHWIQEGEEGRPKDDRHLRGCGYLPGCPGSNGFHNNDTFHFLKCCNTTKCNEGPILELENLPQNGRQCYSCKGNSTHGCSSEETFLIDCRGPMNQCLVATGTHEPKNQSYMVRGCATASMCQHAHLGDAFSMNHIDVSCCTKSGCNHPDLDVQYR
Series [5] has as its target T3, human urokinase plasminogen activator receptor (uPAR), biotinylated (human, UniProt Q03405 23-303).
T3 construct: also called human uPAR; biotinylated human uPAR
The series is described as above.

Chain of human uPAR (Q03405 23-305): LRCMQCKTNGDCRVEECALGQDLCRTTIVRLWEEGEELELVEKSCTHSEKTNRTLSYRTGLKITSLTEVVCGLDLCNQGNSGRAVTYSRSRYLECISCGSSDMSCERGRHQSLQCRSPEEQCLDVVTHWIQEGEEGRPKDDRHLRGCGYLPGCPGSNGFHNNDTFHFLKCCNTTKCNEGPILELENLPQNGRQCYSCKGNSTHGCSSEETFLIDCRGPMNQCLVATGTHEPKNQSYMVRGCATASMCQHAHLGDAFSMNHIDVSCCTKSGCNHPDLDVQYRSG

B1: 2G10-Fab-LAP: 2G10 Fab with the LAP peptide sequence inserted at the C-terminus of the heavy chain (antibody)
heavy: QVQLQQSGPGLVKPSQTLSLTCAISGDSVSSNSAAWNWIRQSPSRGLEWLGRTYYRSKWYNDYAVSVKSRIIINPDTSKNQFSLQLNSVTPEDTAVYYCARDPGGPLDDSFDIWGQGTMVTVSSASTKGPSVFPLAPSSKSTSGGTAALGCLVKDYFPEPVTVSWNSGALTSGVHTFPAVLQSSGLYSLSSVVTVPSSSLGTQTYICNVNHKPSNTKVDKKVEPKSCAAHHHHHHAAGFEIDKVWYDLDA
light: DVVMTQSPLSLPVTPGEPASISCRSSQSLLRSNGYNYLDWYLQKPGQSPQLLIYLGSIRASGVPDRFSGSGSGTDFTLRISRVEAEDVGVYYCMQALQTPFTFGQGTKLEIKRTVAAPSVFIFPPSDEQLKSGTASVVCLLNNFYPREAKVQWKVDNALQSGNSQESVTEQDSKDSTYSLSSTLTLSKADYEKHKVYACEVTHQGLSSPVTKSFNRGEC
For orientation: Kd means the concentration at which binding is half-saturated. For B1, the Kd in series [1] (Octet RED384, biotinylated human uPAR on streptavidin biosensors, room temperature, 1:1 interaction model, read-out: KD (nM), dissociation constants for 2G10-Fabs with uPAR) came out at 31 ± 2.2 nM. Further, in series [1] (Octet, after bioconjugation with excess [19F]-FA), the “differences in binding affinity for uPAR between the Fabs” value is reported as “No significant differences in binding affinity”.

B2: LplA-His6 (E. coli lipoic acid ligase) (protein)
chain: MSTLRLLISDSYDPWFNLAVEECIFRQMPATQRVLFLWRNADTVVIGRAQNPWKECNTRRMEEDNVRLARRSSGGGAVFHDLGNTCFTFMAGKPEYDKTISTSIVLNALNALGVSAEASGRNDLVVKTTEGDRKVSGSAYRETKDRGFHHGTLLLNADLSRLANYLNPDKKKLAAKGITSVRSRVTNLTELLPEITHEQVCEAIREAFFAHYGERVEAEIISPDKTPDLPNFAETFARQSSWEWNFGQAPAFSHLLDERFTWGGVELHFDVEKGHITRAQVFTDSLNPAPLEALAGRLQGCLYRADMLQQECEALLVDFPEQEKELRELSTWIAGAVR
For the molecule B2, in series [2], the Yield/% (radio-TLC conjugation yield of [18F]-FA) is 91% and the “conversion of LAP to [19F]-FA-LAP, RP-HPLC” value is “complete at 30 minutes”. In addition, in series [3], the Yield/% (radio-TLC conjugation yield of [18F]-FA) was 0% and the “conjugation of FA to peptide, RP-HPLC” value is recorded as “No productive reaction was observed after 60 minutes”.

B3: 2G10-Fab-LAP (Fab, V domains shown)
VH: QVQLQQSGPGLVKPSQTLSLTCAISGDSVSSNSAAWNWIRQSPSRGLEWLGRTYYRSKWYNDYAVSVKSRIIINPDTSKNQFSLQLNSVTPEDTAVYYCARDPGGPLDDSFDIWGQGTMVTVSS
VL: DVVMTQSPLSLPVTPGEPASISCRSSQSLLRSNGYNYLDWYLQKPGQSPQLLIYLGSIRASGVPDRFSGSGSGTDFTLRISRVEAEDVGVYYCMQALQTPFTFGQGTKLEIKR
In series [4], B3 gave a Kd of 0.031 µM.

B4: 2G10-Fab (Fab, V domains shown)
VH: QVQLQQSGPGLVKPSQTLSLTCAISGDSVSSNSAAWNWIRQSPSRGLEWLGRTYYRSKWYNDYAVSVKSRIIINPDTSKNQFSLQLNSVTPEDTAVYYCARDPGGPLDDSFDIWGQGTMVTVSS
VL: DVVMTQSPLSLPVTPGEPASISCRSSQSLLRSNGYNYLDWYLQKPGQSPQLLIYLGSIRASGVPDRFSGSGSGTDFTLRISRVEAEDVGVYYCMQALQTPFTFGQGTKLEIKR
B4 registered a Kd in series [5] of 0.038 µM.

Source of the values: patent US20210196842A1, “SITE-SPECIFIC RADIOFLUORINATION OF PEPTIDES WITH 8-[18F]-FLUOROOCTANOIC ACID CATALYZED BY LIPOIC ACID LIGASE” (THE REGENTS OF THE UNIVERSITY OF CALIFORNIA, priority 2015, published 2021).
